Data as given in patent publication US20080227698A1, “OLIGOPEPTIDES FOR TREATMENT OF OSTEOPOROSIS AND OTHER BONE DISEASES AND METHODS THEREOF” (Washington University, priority 2005, published 2008).

Columns and labels:
Wnt signaling = test: Wnt signalling TCF/LEF-Luc assay in HEK293 cells (Wnt3A conditioned medium plus Dkk1); format: cell-based; conditions: Wnt3A conditioned medium plus Dkk1 protein at 10 nM
Protocol: HEK293 cells were plated into six-well plates. For each well, […] of the TOP-[…] luciferase construct (Upstate Biotechnology) was cotransfected with 0.8 μg Mesd-expressing vector, 0.8 μg Mesd mutant-expressing vector, or empty vector. A β-galactosidase-expressing vector (Promega, Madison, Wis.) was included as an internal control for transfection efficiency. After 48 hours, cells were lysed and both luciferase and β-galactosidase activities were determined with enzyme assay kits (Promega). The luciferase activity was determined with a luminometer using the Dual Luciferase Assay system (Promega). Luciferase activity was normalized to the activity of the P-galactosidase.

LRP6 [1] = biological target: T1, LRP6 (Homo sapiens, UniProt O75581); test: ^125I-Mesd cell surface ligand binding to LRP6-transduced HT1080 cells; set-up: plasmid pCS-Myc-hLRP6 containing the full-length human LRP6 cDNA; HA; expressed in transfected cells; host or cells: human HT1080 cells, stably transduced (pLNCX2 retroviral vector); conditions: for Binding of Mesd truncation mutants to cell surface LRP6: LRP6-transduced HT1080 cells, 5 nM ^125I-labelled, 3 hours at 4° C. for Mesd (150-195)
Protocol: To examine whether Mesd binds with high affinity to […] at the cell surface, cell surface ligand binding experiments were performed with cells stably transduced with LRP6 cDNA. Human HT1080 cells, which express undetectable levels of LRP6, were transduced with a viral vector alone (pLNCX2) or with vector containing LRP6 cDNA (Li, Y., Oncogene 23: 9129-9135, 2004) and used for ^125I-Mesd binding (FIG. 1A). ^125I-Mesd (5 nM) reached maximal binding after 2 hours incubation at 4° C. with LRP6-expressing HT1080 cells (FIG. 1A).
(A) Time course of ^125I-Mesd (5 nM) binding to LRP6-transduced HT1080 cells and the control cells. Assay was carried out for the indicated periods at 4° C. in the absence (total) or presence of 500 nM Mesd (non-specific). (B) Saturation binding of ^125I-Mesd to LRP6-transduced HT1080 cells and the control cells. Assay was carried out at indicated concentrations for 3 hours at 4° C. in the absence (total) or presence (non-specific) of 500 nM Mesd. (C) Scatchard plots of data in B. All values are the average of triple determinations with the s.d. indicated by error bars.
(§1) Cells (2×10^5) were seeded into 12-well dishes 1 day prior to assay. Ligand-binding buffer (minimal Eagle's medium containing 0.6% BSA with a different concentration of radioligand, 0.6 ml/well) was added to cell monolayers, in the absence or the presence of 500 nM unlabeled RAP or 500 nM unlabeled Mesd, followed with incubation for 0-4 hours at 4° C. Thereafter, overlying buffer containing unbound ligand was removed, and cell monolayers were washed and lysed in low-SDS lysis buffer (62.5 mM Tris-HCl pH 6.8, 0.2% SDS, 10% v/glycerol) and counted.

LRP6 [2] = biological target: T1, LRP6; test: ^125I-RAP binding to LRP6-transduced HT1080 cells and control cells; set-up: plasmid pCS-Myc-hLRP6 containing the full-length human LRP6 cDNA; HA; expressed in transfected cells; host or cells: human HT1080 cells, stably transduced (pLNCX2 retroviral vector)
Protocol: as §1
Receptor-associated protein (RAP) binds with high affinity to LRP, megalin, VLDLR and apoER2, and with a lower affinity to the LDLR (Bu, G., Int. Rev. Cytol. 209, 79-116. 2001). To determine whether RAP and Mesd bind to identical, overlapping, or different sites on the receptors, binding and competition analysis of these two chaperones with HT1080 cells stably expressing LRP6 was performed.
In FIG. 8A, binding of ^125I-RAP (5 nM) to LRP6-transduced HT1080 cells and the control cells was carried out for 4 hours at 4° C. in the absence (total) or presence of 500 nM RAP, or 500 nM Mesd. In FIG. 8B, binding of ^125I-Mesd (5 nM) to LRP6-transduced HT1080 cells was carried out for 2 hours at 4° C. in the absence (total) or presence of various concentrations of RAP or 500 nM Mesd. (C) LRP6-mediated ^125I-Mesd (5 nM) degradation was carried out for 4 hours at 37° C. in the absence or presence of 500 nM Mesd or 500 nM RAP. Values are the means of triple determinations with the s.d. indicated by error bars.

LRP6 [3] = biological target: T1, LRP6; test: LRP6-mediated ^125I-Mesd degradation in LRP6-transduced HT1080 cells; format: cell-based; set-up: plasmid pCS-Myc-hLRP6 containing the full-length human LRP6 cDNA; HA; expressed in transfected cells; host or cells: human HT1080 cells, stably transduced (pLNCX2 retroviral vector); conditions: 500 nM unlabeled competitor, ^125I-Mesd 5 nM, 4 hours at 37° C.
Protocol: Ligand degradation was performed using the methods as described (Li, Y., J. Biol. Chem. 275: 17187-17194, 2000). Briefly, 2×10^5 cells were seeded into 12-well dishes 1 day prior to assay. Pre-warmed assay buffer (minimal Eagle's medium containing 0.6% BSA with radioligand, 0.6 ml/well) was added to cell monolayers in the absence or the presence of unlabeled 500 nM RAP or 500 nM Mesd, followed by incubation for 4 hours at 37° C. Thereafter, the medium overlying the cell monolayers was removed and proteins were precipitated by addition of BSA to 10 mg/ml and trichloroacetic acid to 20%. Degradation of radioligand was defined as the appearance of radioactive fragments in the overlying medium that were soluble in 20% trichloroacetic acid. Kinetic analysis of endocytosis LRP6-transduced HT1080 cells were plated in 12-well plates at a density of 2×10^5 cells/well and used after overnight culture. Cells were rinsed twice in ice-cold assay buffer (minimal Eagle's medium containing 0.6% BSA), and ^125I-anti-HA IgG was added at 1 nM final concentration in cold assay buffer (0.5 ml/well). The binding of ^125Ianti- HA IgG was carried out at 4° C. for 90 minutes with gentle rocking. Unbound ^125I-anti-HA IgG was removed by washing cell monolayers three times with cold assay buffer. Ice-cold stop/strip solution (0.2 M acetic acid, pH 2.6, 0.1 M NaCl) was added to one set of plates without warming up and kept on ice. The remaining plates were then placed in a 37° C. water bath and 0.5 ml assay buffer prewarmed to 37° C. was quickly added to cell monolayers to initiate internalization. After each time point, the plates were quickly placed on ice and the assay buffer was replaced with cold stop/strip solution. ^125I-anti-HA IgG that remained on the cell surface was stripped by incubation of cell monolayers with cold stop/strip solution for a total of 20 minutes (0.75 ml for 10 minutes, twice) and counted. Cell monolayers were then solubilized with low-SDS lysis buffer and counted. […] The fraction of internalized ^125I-anti-HA IgG after each time point was calculated and plotted. […]

LRP6 [4] = biological target: T1, LRP6; test: ^125I-DKK1 binding to LRP6-transduced HT1080 cells; set-up: plasmid pCS-Myc-hLRP6 containing the full-length human LRP6 cDNA; HA; expressed in transfected cells; host or cells: human HT1080 cells, stably transduced (pLNCX2 retroviral vector); conditions: 500 nM competitor, ^125I-DKK1 5 nM, 3 hours at 4° C.
Protocol: as §1
RAP is a receptor antagonist for members of the LDLR family, and is able to inhibit the binding of most known ligands of the LDLR family members. […] In these experiments, Serum-free conditioned medium was harvested from HEK293 cells transiently transfected with cDNA for human Myc-DKK1 and allowed to bind to LRP6-transduced HT1080 cells (B,C) and control cells (A) in the absence (A,B) or presence (C) of 1 μM Mesd. Cell-surface-bound Myc-tagged DKK proteins were fixed and detected by immunofluorescence staining with anti-Myc antibody. […] Binding of 125I-DKK1 (5 nM) to LRP6-transduced HT1080 cells or the control cells was carried out for 3 hours at 4° C. in the absence (total) or presence of 500 nM RAP or 500 nM Mesd. […] LRP6-mediated 125I-Mesd (5 nM) degradation was carried out for 4 hours at 37° C. in the absence or presence of 500 nM RAP or 500 nM Mesd. Values are the means of triple determinations with the s.d. indicated by error bars. Bar, 10 μm.

[5] = biological target: T2, human Myc-tagged LRP5 on transiently transfected HEK293 cells (human, UniProt O75197 32-1615); test: competition against 125I-Mesd for LRP5 (FIG. 10A)
T2 construct: whole, on cells; also called mature LRP5; pcDNA3.1C-Myc-hLRP5

[6] = biological target: T3, LRP6 on LRP6-transduced HT1080 cells (HA-tagged) (UniProt O75581 20-1613, limits assumed); test: competition against 125I-DKK1 for LRP6 (FIG. 10D)
T3 construct: whole, on cells; also called mature LRP6; cell surface LRP6
T3 sequence (O75581 20-1613 limits assumed): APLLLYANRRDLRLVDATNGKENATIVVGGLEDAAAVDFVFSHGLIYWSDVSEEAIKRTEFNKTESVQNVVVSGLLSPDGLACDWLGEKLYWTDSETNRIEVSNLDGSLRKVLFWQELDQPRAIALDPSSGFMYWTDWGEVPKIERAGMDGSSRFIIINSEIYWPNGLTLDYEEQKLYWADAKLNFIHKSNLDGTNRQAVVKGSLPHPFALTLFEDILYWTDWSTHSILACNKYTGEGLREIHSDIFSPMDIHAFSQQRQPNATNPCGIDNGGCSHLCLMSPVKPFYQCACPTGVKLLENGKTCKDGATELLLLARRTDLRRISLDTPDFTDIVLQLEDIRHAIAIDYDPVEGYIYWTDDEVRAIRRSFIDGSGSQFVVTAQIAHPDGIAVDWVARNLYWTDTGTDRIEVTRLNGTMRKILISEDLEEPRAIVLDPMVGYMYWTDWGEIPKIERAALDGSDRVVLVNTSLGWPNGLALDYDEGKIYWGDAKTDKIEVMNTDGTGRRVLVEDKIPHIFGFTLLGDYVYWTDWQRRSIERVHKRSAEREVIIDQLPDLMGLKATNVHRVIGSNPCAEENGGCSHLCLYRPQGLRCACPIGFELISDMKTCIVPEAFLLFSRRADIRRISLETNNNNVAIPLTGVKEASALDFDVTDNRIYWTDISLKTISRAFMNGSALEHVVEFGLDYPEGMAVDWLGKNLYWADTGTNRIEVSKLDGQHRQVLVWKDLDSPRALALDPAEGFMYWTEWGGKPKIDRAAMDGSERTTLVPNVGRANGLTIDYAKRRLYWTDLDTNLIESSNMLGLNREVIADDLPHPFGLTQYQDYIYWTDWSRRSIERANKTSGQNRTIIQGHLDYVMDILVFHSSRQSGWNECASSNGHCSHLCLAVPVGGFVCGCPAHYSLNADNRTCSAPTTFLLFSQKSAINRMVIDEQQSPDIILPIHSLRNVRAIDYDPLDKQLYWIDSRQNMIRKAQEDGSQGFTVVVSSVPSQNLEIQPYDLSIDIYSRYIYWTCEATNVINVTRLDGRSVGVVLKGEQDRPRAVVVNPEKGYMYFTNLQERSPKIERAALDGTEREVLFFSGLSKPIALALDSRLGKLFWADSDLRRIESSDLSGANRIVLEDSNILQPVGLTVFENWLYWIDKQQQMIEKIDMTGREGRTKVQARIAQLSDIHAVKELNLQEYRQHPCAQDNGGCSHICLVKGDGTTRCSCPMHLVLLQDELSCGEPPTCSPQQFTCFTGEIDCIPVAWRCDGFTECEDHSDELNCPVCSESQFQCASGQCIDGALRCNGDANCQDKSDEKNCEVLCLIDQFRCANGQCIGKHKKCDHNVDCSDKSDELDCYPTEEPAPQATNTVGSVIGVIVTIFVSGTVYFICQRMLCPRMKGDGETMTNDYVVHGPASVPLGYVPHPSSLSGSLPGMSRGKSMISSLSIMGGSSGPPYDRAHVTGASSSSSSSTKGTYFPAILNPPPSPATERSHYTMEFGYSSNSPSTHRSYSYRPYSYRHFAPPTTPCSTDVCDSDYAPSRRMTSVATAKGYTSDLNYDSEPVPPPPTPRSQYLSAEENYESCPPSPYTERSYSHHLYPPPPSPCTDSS

T1 sequence (O75581 20-1613): as the sequence (O75581 20-1613 limits assumed) above
T2 sequence (O75197 32-1615): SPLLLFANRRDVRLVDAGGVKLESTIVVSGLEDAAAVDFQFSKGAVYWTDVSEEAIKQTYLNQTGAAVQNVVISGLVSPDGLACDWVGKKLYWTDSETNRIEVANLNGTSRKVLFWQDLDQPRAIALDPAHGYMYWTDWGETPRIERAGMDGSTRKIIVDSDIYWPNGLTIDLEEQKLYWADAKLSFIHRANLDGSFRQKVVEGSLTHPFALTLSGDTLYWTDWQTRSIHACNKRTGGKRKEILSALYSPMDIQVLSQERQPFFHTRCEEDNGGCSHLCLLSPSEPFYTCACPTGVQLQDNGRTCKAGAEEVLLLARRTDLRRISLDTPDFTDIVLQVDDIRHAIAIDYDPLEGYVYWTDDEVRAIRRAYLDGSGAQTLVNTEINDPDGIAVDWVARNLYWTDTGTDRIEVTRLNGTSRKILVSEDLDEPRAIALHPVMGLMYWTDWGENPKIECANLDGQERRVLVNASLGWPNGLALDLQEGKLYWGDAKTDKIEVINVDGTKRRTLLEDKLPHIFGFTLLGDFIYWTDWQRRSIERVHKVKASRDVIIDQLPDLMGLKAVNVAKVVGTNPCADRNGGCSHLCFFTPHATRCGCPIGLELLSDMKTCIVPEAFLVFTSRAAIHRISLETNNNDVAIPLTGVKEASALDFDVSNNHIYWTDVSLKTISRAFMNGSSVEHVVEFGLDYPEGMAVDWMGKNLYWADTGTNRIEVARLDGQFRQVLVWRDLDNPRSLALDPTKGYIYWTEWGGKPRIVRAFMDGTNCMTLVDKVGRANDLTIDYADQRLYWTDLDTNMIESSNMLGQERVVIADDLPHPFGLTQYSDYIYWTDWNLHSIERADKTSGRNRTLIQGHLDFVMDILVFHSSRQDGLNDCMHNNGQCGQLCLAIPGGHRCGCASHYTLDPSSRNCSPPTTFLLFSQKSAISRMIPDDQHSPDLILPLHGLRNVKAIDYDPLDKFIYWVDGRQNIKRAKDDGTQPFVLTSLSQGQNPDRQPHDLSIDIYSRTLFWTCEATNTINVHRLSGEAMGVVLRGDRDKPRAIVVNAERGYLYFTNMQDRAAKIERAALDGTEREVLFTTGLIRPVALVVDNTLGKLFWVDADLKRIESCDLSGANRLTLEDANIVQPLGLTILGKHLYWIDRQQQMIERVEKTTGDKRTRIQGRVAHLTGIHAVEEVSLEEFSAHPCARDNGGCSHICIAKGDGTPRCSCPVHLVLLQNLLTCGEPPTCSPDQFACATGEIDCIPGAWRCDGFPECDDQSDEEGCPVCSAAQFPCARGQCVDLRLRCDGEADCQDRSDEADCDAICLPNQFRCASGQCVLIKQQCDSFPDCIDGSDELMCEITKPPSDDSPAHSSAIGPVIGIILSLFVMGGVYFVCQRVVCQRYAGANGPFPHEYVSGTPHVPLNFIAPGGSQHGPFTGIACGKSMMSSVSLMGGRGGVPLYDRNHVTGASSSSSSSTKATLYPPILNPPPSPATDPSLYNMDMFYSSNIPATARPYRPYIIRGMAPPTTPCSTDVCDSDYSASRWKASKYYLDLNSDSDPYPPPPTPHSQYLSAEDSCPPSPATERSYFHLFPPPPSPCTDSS

Molecule: KGGGSKEKNKTKPEKAKKKEGDRKPRASKEDNRAGSR [SEQ ID NO: 21]
- Restoring of Wnt signaling inhibited by Dkk1 (luciferase activity) (Wnt signaling): at least partially restoring Wnt signaling

Molecule: QMYPGKGGGSKEKNKTKPEKAKKKEGDPKPRASKEDNRAGSRREDL [SEQ ID NO: 22]
- Restoring of Wnt signaling inhibited by Dkk1 (luciferase activity) (Wnt signaling): at least partially restoring Wnt signaling
- Binding of Mesd truncation mutants to cell surface LRP6 (LRP6 [1]): necessary and sufficient for LRP6 binding

Molecule: RAP: human recombinant 39 kDa receptor-associated protein, expressed in a GST expression vector [reference compound]
- Effect of excess unlabeled competitor on ^125I-RAP binding to control cells (LRP6 [2]; 500 nM competitor, control cells expressing vector alone, 4° C.): completely eliminated this binding
- Increase of RAP binding in LRP6 expressing HT1080 cells compared to control cells (LRP6 [2]; ^125I-RAP 5 nM, 4 hours at 4° C.): ~20%
- Inhibition of ^125I-Mesd degradation (LRP6 [3]): only partially
- Inhibition of ^125I-Mesd binding to cell surface LRP6 (LRP6 [1]; 500 nM unlabeled competitor, ^125I-Mesd 5 nM, 2 hours at 4° C.): ~60%
- Effect of excess unlabeled competitor on increased DKK1 binding (LRP6 [4]): not

Molecule: KGGGSKEKNKTKPEKAKKKEGDPKPRASKEDNRAGSR (also called the oligopeptide) [Mesd oligopeptide KGGGSKEKNKTKPEKAKKKEGDPKPRASKEDNRAGSR (SEQ ID NO: 20)]
- fold reduction of ^125I-Mesd binding [5]: ~10 fold
- fold reduction of ^125I-DKK1 binding [6]: > 2 fold

B1: MESD(12-195): truncated Mesd mutant lacking the N-terminal region (N-terminal 11 amino acids of mouse Mesd) (protein)
chain: RKKKDIRDYNDADMARLLEQWEKDDDIEEGDLPEHKRPSAPIDFSKLDPGKPESILKMTKKGKTLMMFVTVSGNPTEKETEEITSLWQGSLFNANYDVQRFIVGSDRAIFMLRDGSYAWEIKDFLVSQDRCAEVTLEGQMYPGKGGGSKEKNKTKPEKAKKKEGDRKPRASKEDNRAGSRREDL
modifications: left off: small tags and cut ends
- Binding of Mesd truncation mutants to cell surface LRP6 (LRP6 [1]): no effect on LRP6 binding

B2: Mesd(12-155): truncated Mesd mutant lacking both the N-terminal and C-terminal regions (protein)
chain: RKKKDIRDYNDADMARLLEQWEKDDDIEEGDLPEHKRPSAPIDFSKLDPGKPESILKMTKKGKTLMMFVTVSGNPTEKETEEITSLWQGSLFNANYDVQRFIVGSDRAIFMLRDGSYAWEIKDFLVSQDRCAEVTLEGQMYPGK
modifications: left off: small tags and cut ends
notes: truncated Mesd mutant lacking both the N-terminal and C-terminal regions
- Binding of Mesd truncation mutants to cell surface LRP6 (LRP6 [1]): completely abolished LRP6 binding
